In patent US20100104550A1 (ADELAIDE RESEARCH AND INNOVATION, published 2010):

What was measured:
[1] = target: EGF receptor (EGFR) on F98/EGFR rat glioma cells engineered to express 10^6 EGFR per cell (UniProt P00533 25-1210); assay: cell-based or functional assay
[2] = target: EGF receptor (EGFR) on MDA231luc cells (luciferase-expressing derivative of EGFR-positive human brea (human (human breast carcinoma cells), UniProt P00533 25-1210)); assay: cell-based or functional assay

B1: EGF-SubA fusion protein (Cys-tag, linker, human EGF, linker, SubA 22-347) (other)
chain: MKESCAKKFQRQHMDSGGGGSGGGGSGGGGSMGNSDSECPLSHDGYCLHDGVCMYIEALDKYACNCVVGYIGERCQYRDLKWWELRSMADIGSEKPWYFDAIGLTETTMSLTDKNTPVVVSVVDSGVAFIGGLSDSEFAKFSFTQDGSPFPVKKSEALYIHGTAMASLIASRYGIYGVYPHALISSRRVIPDGVQDSWIRAIESIMSNVFLAPGEEKIINISGGQKGVASASVWTELLSRMGRNNDRLIVAAVGNDGADIRKLSAQQRIWPAAYHPVSSVNKKQDPVIRVAALAQYRKGETPVLHGGGITGSRFGNNWVDIAAPGQNITFLRPDAKTGTGSGTSEATAIVSGVLAAMTSCNPRATATELKRTLLESADKYPSLVDKVTEGRVLNAEKAISMFCKKNYIPVRQGRMSEEL
[1]
  IC50 of cytotoxicity toward F98/EGFR cells (72 h, Cell Proliferation Assay): 0.005 nM
  fold difference in cytotoxicity, F98/EGFR cells against parental F-98 cells: 500 fold
[2]
  IC50 of cytotoxicity toward MDA-231luc cells (72 h, Cell Proliferation Assay): ~0.05 nM
